Experimental findings from publication PMC8840716, “Functional Antagonism of WRI1 and TCP20 Modulates GH3.3 Expression to Maintain Auxin Homeostasis in Roots” (Plants, 2022) are described below.

In this assay the target is T1, GST-AtWRI1 (Arabidopsis, UniProt Q6X5Y6 1-430).
T1 construct: Arabidopsis WRINKLED1 (AtWRI1), AT3G54320, full-length, sub-cloned into pET41a-GST; also called WRINKLED1; GST agarose-coupled AtWRI1; source: E. coli BL21 (DE3), purified
T1 sequence (looked up): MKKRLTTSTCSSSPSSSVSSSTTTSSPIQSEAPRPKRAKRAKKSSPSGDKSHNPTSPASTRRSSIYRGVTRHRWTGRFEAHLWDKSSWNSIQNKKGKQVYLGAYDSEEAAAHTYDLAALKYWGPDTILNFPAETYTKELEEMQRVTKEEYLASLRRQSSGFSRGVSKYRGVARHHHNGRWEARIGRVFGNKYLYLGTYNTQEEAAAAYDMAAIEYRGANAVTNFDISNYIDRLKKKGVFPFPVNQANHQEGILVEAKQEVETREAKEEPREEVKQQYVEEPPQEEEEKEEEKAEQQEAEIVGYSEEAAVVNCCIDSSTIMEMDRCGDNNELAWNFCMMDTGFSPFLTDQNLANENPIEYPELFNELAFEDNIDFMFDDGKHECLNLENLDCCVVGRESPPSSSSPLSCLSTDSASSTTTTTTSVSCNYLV
Kind of assay: pull-down; purified His-TCP20 incubated with GST beads coupled with purified GST-AtWRI1; 20 mM Tris-HCl pH 7.4, 150 mM NaCl, 1 mM DTT, 0.1 mM EDTA, 0.1% IGEPAL CA-630, 4 °C overnight, 5 washes; immunoblot with anti-His antibody. To be noted: both partners purified.

B1: His-TCP20 (natural protein)
chain: not shown
notes: Arabidopsis TCP20, AT3G27010, full-length, sub-cloned into pET41a-6xHis; also called His-tagged TCP20; source: E. coli BL21 (DE3), purified
For the molecule B1, the binding result was “binds”.
